Measured values reported in US7482138 (TRUSTEES OF COLUMBIA UNIVERSITY IN THE CITY OF NEW YORK, dated 2009).

Molecular target: Rac1V12, pre-loaded with [γ-32P] GTP (UniProt P63000 1-192)
Assay: overlay assay, immobilised Myc-tagged kinase probed with [γ-32P] GTP-loaded GTPase
Description: PAK4 and PAK5 interact with activated Rac and Cdc42. 293 cells were transfected with equal amounts of expression vectors, encoding the following Myc-tagged proteins: wild type PAK4 (Myc-PAK4), wild type PAK5 (Myc-PAK5), or PAK5ΔGBD. After transient expression, the Myc-tagged proteins were immunoprecipitated from whole cell lysates using a mouse anti-Myc antibody and protein A sepharose. The immunocomplexes were separated by SDS-PAGE and transferred to a PVDF membrane. The membranes were then probed with purified RhoV14, Rac1V12 or Cdc42V12, as indicated. The GTPases were pre-loaded with [γ-^32P] GTP as described in the Materials and Methods. A portion of the lysate was used for Western blot analysis (WB) with an anti-Myc antibody to measure the amount of each transfected protein in the lysates.
The overlay assay is described in (27). Briefly, 293 cells were transfected with 10 µg of empty vector, MycPAK4, or Myc-PAK5. PAK4 and PAK5 were then immunopurified using anti-Myc antibody (9E10, Santa Cruz) and the immunopurified proteins were separated on SDS-PAGE and transferred to a PVDF membrane. The membrane was then washed and blocked with phosphate-buffered saline (PBS) containing 1% bovine serum albumin (BSA) and 100 mM dithiothreitol (DTT). Recombinant GTPases (2 µg) were pre-loaded with [γ-^32P] GTP and were incubated for 5 min with the PVDF membrane. […]

- binding result: binds
B1: Myc-tagged wild type PAK5 (human p21-activated kinase 5) (enzyme, not shown: small tags and cut ends)
chain: MFGKKKKKIEISGPSNFEHRVHTGFDPQEQKFTGLPQQWHSLLADTANRPKPMVDPSCITPIQLAPMKTIVRGNKPCKETSINGLLEDFDNISVTRSNSLRKESPPTPDQGASSHGPGHAEENGFITFSQYSSESDTTADYTTEKYREKSLYGDDLDPYYRGSHAAKQNGHVMKMKHGEAYYSEVKPLKSDFARFSADYHSHLDSLSKPSEYSDLKWEYQRASSSSPLDYSFQFTPSRTAGTSGCSKESLAYSESEWGPSLDDYDRRPKSSYLNQTSPQPTMRQRSRSGSGLQEPMMPFGASAFKTHPQGHSYNSYTYPRLSEPTMCIPKVDYDRAQMVLSPPLSGSDTYPRGPAKLPQSQSKSGYSSSSHQYPSGYHKATLYHHPSLQSSSQYISTASYLSSLSLSSSTYPPPSWGSSSDQQPSRVSHEQFRAALQLVVSPGDPREYLANFIKIGEGSTGIVCIATEKHTGKQVAVKKMDLRKQQRRELLFNEVVIMRDYHHDNVVDMYSSYLVGDELWVVMEFLEGGALTDIVTHTRMNEEQIATVCLSVLRALSYLHNQGVIHRDIKSDSILLTSDGRIKLSDFGFCAQVSKEVPKRKSLVGTPYWMAPEVISRLPYGTEVDIWSLGIMVIEMIDGEPPYFNEPPLQAMRRIRDSLPPRVKDLHKVSSVLRGFLDLMLVREPSQRATAQELLGHPFLKLAGPPSCIVPLMRQYRHH
notes: also called Myc-PAK5
